Each block holds one binder with its values, some of them ahead of it.
Experiments:
[1] = target: T1, ICAM1, endogenous in H929 multiple myeloma cells (human, UniProt P05362 28-532); test: flow cytometry, AF647-IgG1 on H929 cells
T1 construct: Native protein on H929 cells (flow cytometry, siRNA knockdown) and in H929 lysates (IP/MS); also called CD54
Procedure: (§1) Staining protocol. Cells were harvested (5×10⁴ cells per sample), washed once with phosphate-buffered saline (PBS) at RT, and a second time with ice-cold FACS buffer (PBS, 0.5% BSA, 2 mM EDTA, 0.1% NaN₃). Cells were stained in 50 μL of primary antibody for 30 min on ice, washed twice with 100 μL FACS buffer, stained with 50 μL of diluted secondary antibody, washed two more times in FACS, and then resuspended in 50 μL FACS buffer. Samples were acquired on an Accuri C6 Plus or a BD FACSCanto II flow cytometer (both from BD Biosciences). Data were analyzed using FlowJo version 10 software. Primary antibodies: Fab (10 μg/mL), IgG1 (0.1 to 50 μg/mL), or 25 μL polyclonal Fabs from periplasmic extracts. Polyclonal Fabs were produced by diluting bacterial stocks by a factor of 100 in autoinduction media and incubating overnight to induce expression as previously described. […] Viability stains: DAPI (Cell Signaling Technology) or SYTOX AADvanced Dead Cell Stain (Thermo Fisher Scientific). Labeling: The panel of chimeric rabbit/human IgG1s was labeled using the Alexa Fluor 647 Labeling Kit (Thermo Fisher Scientific, #A20173) to facilitate single-step staining. Competition: Unlabeled IgG1s were added at saturating concentrations of 60 μg/mL to block the target receptors, incubating on ice for 30 min, followed by the addition of an equal volume of the Alexa Fluor 647 labeled antibody at 2 μg/mL, and the mixture was incubated on ice for another 30 min.

[2] = target: T2, CADM1, endogenous in H929 multiple myeloma cells (human, UniProt Q9BY67 45-442); test: flow cytometry, AF647-IgG1 on H929 cells
T2 construct: Native protein on H929 cells (flow cytometry, siRNA knockdown) and in H929 lysates (IP/MS); also called IGSF4A
T2 sequence: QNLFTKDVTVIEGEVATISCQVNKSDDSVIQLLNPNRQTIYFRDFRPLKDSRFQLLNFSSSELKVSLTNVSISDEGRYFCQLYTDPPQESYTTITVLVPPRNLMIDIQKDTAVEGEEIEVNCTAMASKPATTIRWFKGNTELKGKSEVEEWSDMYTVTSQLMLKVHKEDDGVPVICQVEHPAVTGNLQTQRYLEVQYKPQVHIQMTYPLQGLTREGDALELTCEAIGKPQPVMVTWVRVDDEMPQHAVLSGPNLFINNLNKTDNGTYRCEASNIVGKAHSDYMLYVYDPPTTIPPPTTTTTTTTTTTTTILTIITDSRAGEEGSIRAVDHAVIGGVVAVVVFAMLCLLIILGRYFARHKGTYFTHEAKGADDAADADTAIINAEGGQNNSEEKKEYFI
Procedure: as §1

[3] = target: T3, PTPRG, endogenous in H929 multiple myeloma cells (human, UniProt P23470 20-1445); test: flow cytometry, AF647-IgG1 on H929 cells
T3 construct: Native protein on H929 cells (flow cytometry, siRNA knockdown) and in H929 lysates (IP/MS); also called phosphatase receptor type γ
Procedure: as §1

[4] = target: T3, PTPRG, endogenous in H929 multiple …; test: flow cytometry, IgG1 on cell lines, heatmap of % positive cells
[5] = target: T3, PTPRG, endogenous in H929 multiple …; test: flow cytometry, H929 + GARS siRNA; None 452
[6] = target: T3, PTPRG, endogenous in H929 multiple …; test: flow cytometry, H929 + GARS siRNA; None 0.2
[7] = target: T3, PTPRG, endogenous in H929 multiple …; test: flow cytometry, H929 + CDH18 siRNA; None 0.19
[8] = target: T1, ICAM1, endogenous in H929 multiple …; test: flow cytometry, H929 + GARS siRNA; None 452
[9] = target: T1, ICAM1, endogenous in H929 multiple …; test: flow cytometry, H929 + GARS siRNA; None 0.2
[10] = target: T1, ICAM1, endogenous in H929 multiple …; test: flow cytometry, H929 + CADM1 siRNA; None 449
[11] = target: T1, ICAM1, endogenous in H929 multiple …; test: flow cytometry, H929 + CADM1 siRNA; None 0.89
[12] = target: T1, ICAM1, endogenous in H929 multiple …; test: flow cytometry, H929 + CDH18 siRNA; None 0.19
[13] = target: T2, CADM1, endogenous in H929 multiple …; test: flow cytometry, H929 + GARS siRNA; None 452
[14] = target: T2, CADM1, endogenous in H929 multiple …; test: flow cytometry, H929 + GARS siRNA; None 0.2
[15] = target: T2, CADM1, endogenous in H929 multiple …; test: flow cytometry, H929 + CDH18 siRNA; None 0.19

T1 sequence (P05362 28-532 limits assumed): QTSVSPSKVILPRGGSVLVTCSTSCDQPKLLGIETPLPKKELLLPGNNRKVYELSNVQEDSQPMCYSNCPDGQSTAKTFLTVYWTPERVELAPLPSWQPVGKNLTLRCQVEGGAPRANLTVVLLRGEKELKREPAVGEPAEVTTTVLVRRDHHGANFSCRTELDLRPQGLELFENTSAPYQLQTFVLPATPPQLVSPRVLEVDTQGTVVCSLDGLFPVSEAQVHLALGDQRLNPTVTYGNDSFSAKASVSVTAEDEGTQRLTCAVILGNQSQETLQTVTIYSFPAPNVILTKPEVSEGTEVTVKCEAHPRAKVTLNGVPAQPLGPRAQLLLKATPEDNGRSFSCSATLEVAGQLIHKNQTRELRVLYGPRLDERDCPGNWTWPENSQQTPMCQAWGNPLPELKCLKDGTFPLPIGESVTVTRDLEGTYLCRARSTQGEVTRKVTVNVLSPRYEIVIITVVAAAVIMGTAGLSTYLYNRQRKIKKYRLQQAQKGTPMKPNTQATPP
T3 sequence (P23470 20-1445 limits assumed): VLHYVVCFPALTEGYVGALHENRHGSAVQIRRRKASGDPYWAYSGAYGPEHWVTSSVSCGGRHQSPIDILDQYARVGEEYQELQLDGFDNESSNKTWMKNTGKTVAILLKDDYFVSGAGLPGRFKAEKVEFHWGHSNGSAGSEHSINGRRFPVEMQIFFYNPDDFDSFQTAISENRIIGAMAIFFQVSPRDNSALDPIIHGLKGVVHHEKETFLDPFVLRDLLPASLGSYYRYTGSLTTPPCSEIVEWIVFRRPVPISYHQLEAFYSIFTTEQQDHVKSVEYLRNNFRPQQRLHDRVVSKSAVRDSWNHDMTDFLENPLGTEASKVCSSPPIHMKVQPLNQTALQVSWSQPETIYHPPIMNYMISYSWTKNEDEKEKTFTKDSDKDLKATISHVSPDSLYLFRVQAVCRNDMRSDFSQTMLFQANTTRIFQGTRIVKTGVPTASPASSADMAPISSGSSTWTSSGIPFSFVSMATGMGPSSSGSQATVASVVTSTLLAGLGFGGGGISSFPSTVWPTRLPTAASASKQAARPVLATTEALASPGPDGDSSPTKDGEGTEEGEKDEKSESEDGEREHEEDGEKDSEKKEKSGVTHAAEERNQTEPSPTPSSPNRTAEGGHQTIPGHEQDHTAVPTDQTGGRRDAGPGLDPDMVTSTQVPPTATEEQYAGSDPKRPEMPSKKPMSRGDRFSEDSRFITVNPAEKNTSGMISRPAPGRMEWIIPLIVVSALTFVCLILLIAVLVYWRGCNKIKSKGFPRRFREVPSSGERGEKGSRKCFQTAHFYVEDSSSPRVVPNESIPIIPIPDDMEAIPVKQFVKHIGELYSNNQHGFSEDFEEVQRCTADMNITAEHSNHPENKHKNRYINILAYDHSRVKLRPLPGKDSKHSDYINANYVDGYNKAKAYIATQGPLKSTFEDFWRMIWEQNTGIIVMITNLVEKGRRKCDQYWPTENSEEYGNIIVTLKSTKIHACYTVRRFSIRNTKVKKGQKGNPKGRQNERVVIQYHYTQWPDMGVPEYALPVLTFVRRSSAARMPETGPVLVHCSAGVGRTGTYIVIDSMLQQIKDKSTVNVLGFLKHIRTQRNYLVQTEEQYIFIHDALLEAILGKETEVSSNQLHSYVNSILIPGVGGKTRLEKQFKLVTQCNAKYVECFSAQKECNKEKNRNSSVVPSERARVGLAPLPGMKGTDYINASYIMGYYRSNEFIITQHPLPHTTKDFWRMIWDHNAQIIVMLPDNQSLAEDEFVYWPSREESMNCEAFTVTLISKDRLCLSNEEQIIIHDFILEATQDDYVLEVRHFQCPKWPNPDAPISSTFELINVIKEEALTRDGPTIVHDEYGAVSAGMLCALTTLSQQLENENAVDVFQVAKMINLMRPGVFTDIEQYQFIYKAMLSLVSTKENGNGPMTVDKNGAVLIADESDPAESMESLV

binding result [1]: no binding | binding result [2]: no binding | binding result [3]: no binding
B1: TH9-0022 (antibody, human IgG1, kappa, L234A L235A, V domains shown)
VH: QSLEESGGRLVTPGTPLTLTCTVSGFSLSSYAMNWVRQAPGKGLEWIGIINSYGSTYYASWAKGRFTISKTSTTVDLKITSPTTEDTATYFCARVTYDSYGYGYAPYGMDLWGPGTLVTVSS
VL: LVMTQTPSSTSNAVGGTVTIKCQASQSIGNVLAWYQQKPGQPPKLLIYAASTLASGVPSRVGGSRSGTEYTLTISGVQREDAATYYCLGSDSDSDIAFGGGTELEILR
notes: also called TH9-022; negative control

binding result [4]: no binding
B2: TH9-0022 (antibody, human IgG1, kappa, L234A L235A, V domains shown)
VH: QSLEESGGRLVTPGTPLTLTCTVSGFSLSSYAMNWVRQAPGKGLEWIGIINSYGSTYYASWAKGRFTISKTSTTVDLKITSPTTEDTATYFCARVTYDSYGYGYAPYGMDLWGPGTLVTVSS
VL: LVMTQTPSSTSNAVGGTVTIKCQASQSIGNVLAWYQQKPGQPPKLLIYAASTLASGVPSRVGGSRSGTEYTLTISGVQREDAATYYCLGSDSDSDIAFGGGTELEILR
notes: also called TH9-022; negative control IgG1

mAb binding (MFI) [5]: 9850 | Cells stained (%) [6]: 98.8% | Cells stained (%) [7]: 99.5%
B3: HW-42 chimeric rabbit-human IgG1 LA/LA/PG (antibody, V domains shown)
VH: QSVKESEGGLFKPADTLTLTCTVSGFSLSSNEISWVRQAPGEGLEYIGIIDTGGRAYYAVWARSRSTITRNTNLNTVTLKMTSLTAADTATYFCARGGVDTEWYAFSSWGPGTLVTVPS
VL: SFVLTQPASVQVNLGQTVSLTCTADTLSRRYASWYQQKPGQAPVLLIFRDTSRPSGVPDRFSGSSSGDTATLTISGAQAGDEADYYCATSDGSGSNYQYVFGGGTQLTVTG
notes: Fc-silenced (L234A/L235A/P329G) IgG1, lambda; Alexa Fluor 647-labeled in single-step flow cytometry; Cluster C-1

mAb binding (MFI) [8]: 43200 | Cells stained (%) [9]: 99.8% | mAb binding (MFI) [10]: 32600 | Cells stained (%) [11]: 99.7% | Cells stained (%) [12]: 98.8%
B4: HW-113 chimeric rabbit-human IgG1 LA/LA/PG (antibody, V domains shown)
VH: QKQLVESGGGLVQPGGSLTLTCTVSGFSLNKYYMGWFRQAPGKGLEWIGVISRSGDTYYSSWAKGRFTISKASTTVDLRITSPTTEDTATYFCARDASSPGFHGDRLDLWGQGTLVTVSS
VL: SFVLTQPASVQVNLGQTVSLTCTADTLSRSYASWYQQKPGQAPVLLIYRDTSRPSGVPDRFSGSSSGNTATLTISGAQAGDEADYYCATSDGIGSNYLWVFGGGTQLTVTG
notes: Fc-silenced (L234A/L235A/P329G) IgG1, lambda; Alexa Fluor 647-labeled in single-step flow cytometry

mAb binding (MFI) [13]: 22100 | Cells stained (%) [14]: 99.9% | Cells stained (%) [15]: 99.7%
B5: HW-97 chimeric rabbit-human IgG1 LA/LA/PG (antibody, V domains shown)
VH: QKQLVESGGRLVTPGTPLTLTCTVTGIDLSSHGMSWVRQAPGKGLEWIGVIYPSGSTWYASWARGRFTISKTSTTVDLKMTSLTTEDTATHFCARGDVGGADNNIWGPGTLVTVSS
VL: SFVLTQPASVQVDLGQTVSLTCTAETLSRSYASWYQQKPGQAPVLLIYRDTSRPSGVPDRFSGSSSGNTATLTISGAQAGDEADYYCATSDGSGSSYQYVFGGGTQLTVTG
notes: Fc-silenced (L234A/L235A/P329G) IgG1, lambda; Alexa Fluor 647-labeled in single-step flow cytometry; Prototype of cluster C-97
